Experimental data: patent publication US20240150805A1, “Glycosylated Opioids” (River Stone Biotech ApS, priority 2021, published 2024)

B1: SEQ ID NO: 204: UGT fused N-terminally to a solubility tag (protein)
chain: MKAQYEDGKQYTTLEKPVAGAPQVLEFFSFFCPHCYQFEEVLHISDNVKKKLPEGVKMTKYHVNFMGGDLGKDLTQAWAVAMALGVEDKVTVPLFEGVQKTQTIRSASDIRDVFINAGIKGEEYDAAWNSFVVKSLVAQQEKAAADVQLRGVPAMFVNGKYQLNPQGMDTSNMDVFVQQYADTVKYLSEKKGGGGSEQKPHIALLPSPGMGHLIPLVEFAKQFVLHHDFHITCIIPVLGSPSKAMKAVLQALPTTIDHVFLPPVILEEEEIKGLKFEVQTILTLTRSLPPLREVLKTTRFSAFVVDPFGIDALDIAKELNISPYIFFPSNAFALSLIFHLPKLDETVSCEYRDLPEPLKLPGCIPIHGRDLIEPVQDRTSELYKMFLRNAKRFRLAEGIIVNTFMELEGSAIKALLDEEAKNLPLYPIGPIQSGSSNLQVDKSVSDCLRWLDNQPHGSVLFVCFGSGGTLSYDQTNELALGLELSGQKFLWVVRTPNNESADAAYLSDQILDNNPLDFLPKGFVERTEGQGLAVPSWAPQAQVLSHGSTGGFLTHCGWNSTLESIMQGIPLIAWPLYAEQKMNAPLLAEDLKVALRPKTNKSGLIDQEEIAKVVKGLMIGEEGKKVYNRMKDIKMAAEKALSADGSSTKALSELASQWKNHPGF
B2: SEQ ID NO: 170: additional UGT with 62% identity at the protein level to SEQ ID NO: 96 (protein)
chain: MEQTPHIAIMPTQGMGHLIPLVEFAKRLVLTHNFSATFLIPTDPGRLPAAQKSFLDSLPAGINYVLLPPVNFDDLPDDVGSETRISLAVVRSLPSLRDALKSLVSGFRVVALVVDLFGTDAFDVAAEFNVSPYIFYPSTAMALSLFLHLPKLDESVSCEYRDLPEPVQIPGCIPVHGKDLLDPVQDRKNGAYKWLLHQVKRYRLAEGIMVNSFKELEGGAIKALQEEEPGKPPVYPIGPLVQMDGADEKSECLRWLDDQPRGSVLFVSFGSGGTLSYDQLNELALGLEMSEQRFLWVVRSPNNKSANATYFSVNSQNDPFAFLPKGFLERTKGYGLVVPSWAPQVRVLSHGSTGGFLTHCGWNSTLESVVNGVPLIAWPFYAEQKMNAVMLTEDLKVALRLRIGENGIIGRAEIAKVVKGLMEGEEGKQIRSRMIDLKDAAARALGEDGDSTKSLAELAQKWKNKIIS
B3: PWA70520: subfamily 71 UGT (protein, listed as Artemisia annua)
chain: MTTLELVFIPSPGAGHLPPTVELAKLLLDHDQRLSVTIIIMNLPFEAEQVTETPISTPRLNFIYVANEDSSKDLISPHTFMSAFLEHQKPKLKNIIRDITESDSVRLVGFIVDMFCIAMIDVANEFGVPTYVYFTSSASALGLMFHLQAKCDDEEYDVTDLKDSDLMLSIPSYVKPIPAKLLPSVLFDKQGGSKMFIDLAKKFRESEGIIINSFQELESHGLEFLIKGDPNIPPVFPVGPILNLKNTKNDGKTTDIMAWLDNQPKSSVVFLCFGSMGSFGEKQVKEIAVALERSEHRFLWSLRRPPSKEVMRLPEEYENFKEVLPEGFLECTSNLGKVIGWAPQTSVLSHPSLGGFVSHCGWNSTLESIWFGVPVAAWPLYAEQQINAFQLVMELGIAAEIKIDYKSNIGPGGGSNEMLVKADEIESGIRRLMNDDDMRRNVKEMKHMSRLTVTEGGSSYASIKRFIELVITNT
B4: SEQ ID NO: 212: UGT fused N-terminally to a solubility tag (protein)
chain: METHINLKVSDGSSEIFFKIKKTTPLRRLMEAFAKRQGKEMDSLRFLYDGIRIQADQTPEDLDMEDNDIIEAHREQIGGGGGGSEQKPHIALLPSPGMGHLIPLVEFAKQFVLHHDFHITCIIPVLGSPSKAMKAVLQALPTTIDHVFLPPVILEEEEIKGLKFEVQTILTLTRSLPPLREVLKTTRFSAFVVDPFGIDALDIAKELNISPYIFFPSNAFALSLIFHLPKLDETVSCEYRDLPEPLKLPGCIPIHGRDLIEPVQDRTSELYKMFLRNAKRFRLAEGIIVNTFMELEGSAIKALLDEEAKNLPLYPIGPIQSGSSNLQVDKSVSDCLRWLDNQPHGSVLFVCFGSGGTLSYDQTNELALGLELSGQKFLWVVRTPNNESADAAYLSDQILDNNPLDFLPKGFVERTEGQGLAVPSWAPQAQVLSHGSTGGFLTHCGWNSTLESIMQGIPLIAWPLYAEQKMNAPLLAEDLKVALRPKTNKSGLIDQEEIAKVVKGLMIGEEGKKVYNRMKDIKMAAEKALSADGSSTKALSELASQWKNHPGF
B5: XP_023914549: subfamily 72 UGT, sequence homolog of Qs72S_1 (protein)
chain: MEQKPHIALLPSPGMGHLIPLVEFAKQFVLHHDFRITCIVPVLGSPSKAMKAVLQALPTTIDHVFLPPVKLEEEEIRGLKFEVQTILTLTRSLPPLREVLKSTRFSAFVVDPFGIDALDIAKELNISPYIFFPTNAFALSLIFHLPKLDKTVSCEYRDLPEPLKLPGCIPIHGRDLSEPVQDRTSELYKMFLRNAKRFRLAEGIIVNTFMELERSAIKALLDEEAKNLPLYPIGPIQSGSSNQVDKSESDCLRWLENQPHGSVLFVCFGSGGTLSYDQTNELALGLELSGQKFLWVVRTPNNESADAAYLSDQTLDNNPLAFLPKGFVERTEGQGLAVPSWAPQAQVLSHGSTGGFLTHCGWNSILESVMQGIPLIAWPLYAEQKMNAVLLAEDLKVALRPKTNKNGLIDREEIAKVVKGLMVGEEGKKVRNRMKDIKIAAVKALSADGSSTKALSELASQWKNHPGF
modifications: Quercus suber
B6: SEQ ID NO: 214: UGT fused N-terminally to a solubility tag (protein)
chain: METHINLKVSDGSSEIFFKIKKTTPLRRLMEAFAKRQGKEMDSLRFLYDGIRIQADQTPEDLDMEDNDIIEAHREQIGGGGGGSGGGGSGGGGSEQKPHIALLPSPGMGHLIPLVEFAKQFVLHHDFHITCIIPVLGSPSKAMKAVLQALPTTIDHVFLPPVILEEEEIKGLKFEVQTILTLTRSLPPLREVLKTTRFSAFVVDPFGIDALDIAKELNISPYIFFPSNAFALSLIFHLPKLDETVSCEYRDLPEPLKLPGCIPIHGRDLIEPVQDRTSELYKMFLRNAKRFRLAEGIIVNTFMELEGSAIKALLDEEAKNLPLYPIGPIQSGSSNLQVDKSVSDCLRWLDNQPHGSVLFVCFGSGGTLSYDQTNELALGLELSGQKFLWVVRTPNNESADAAYLSDQILDNNPLDFLPKGFVERTEGQGLAVPSWAPQAQVLSHGSTGGFLTHCGWNSTLESIMQGIPLIAWPLYAEQKMNAPLLAEDLKVALRPKTNKSGLIDQEEIAKVVKGLMIGEEGKKVYNRMKDIKMAAEKALSADGSSTKALSELASQWKNHPGF

Legend:
[1] = Effect of N-terminal tags on UGT activity in yeast bioconversion of oripavine; assay type: cell-based, Saccharomyces cerevisiae; conditions: UGT with solubility tag
[2] = Test of additional UGT (SEQ ID NO: 170) in yeast fed with oripavine; assay type: cell-based, Saccharomyces cerevisiae; conditions: Delft pH 5.5 media, 2 mM oripavine, 3 days, 30 degrees Celsius
Description: An additional UGT (SEQ ID NO: 170) with 62% identity at the protein level to SEQ ID NO: 96 was also tested in a similar manner as above. Briefly, cells were grown overnight in SC-HLU and used to inoculate Delft pH 5.5 media containing 2 mM oripavine. After growth with shaking at 30 degrees Celsius for 3 days, total extracts were obtained by mixing the cultures with an equal volume of 0.2% formic acid and heating at 80 degrees Celsius for 10 minutes. After centrifugation, the supernatant was diluted in 0.1% formic acid for quantification by HPLC as described in the Materials and Methods. UGT SEQ ID NO: 170 was active for glucosylation on both oripavine and nororipavine however it produced 41% of the noropavine-glu relative to SEQ ID NO: 96 and 35% of oripavine-glu relative to SEQ ID NO: 96.

[3] = In vitro glucosylation of oripavine and nororipavine by purified UGTs; assay type: biochemical; conditions: purified UGT, 500 μM substrate, overnight at 30° C., HPLC
Description: Glucosylation samples of a 20 μL total reaction volume for each UGT to be tested were prepared in 96-well microtiter plates as follows:
The microtiter plate was sealed with an adhesive seal, spun shortly and the glucosylation samples were incubated overnight at 30° C. After incubation, glucosylation reaction was terminated by adding 3 volumes (60 μL) of ice-cold 100% methanol the reaction volume and mixing well, followed by centrifugation of the plate at 3000 rpm for 5 min at 4° C. and analysis by HPLC.
The 72UGTs of Table 5 were tested in vitro to using the test setup of example 3 identify those having having specificity toward nororipavine.

Row | Molecule | amounts of glucosylated nororipavine compared to the untagged UGT alone [1] | preference for nororipavine glucosylation compared to oripavine glucosylation [3] | other results
1 | B1 | higher | – | –
2 | B2 | – | – | noropavine-glu produced relative to SEQ ID NO: 96 [2]: 41%; oripavine-glu produced relative to SEQ ID NO: 96 [2]: 35%
3 | B3 | – | preference for glucosylation of nororipavine | –
4 | B4 | higher | – | –
5 | B5 | – | particularly strong preference for Nororipavine glucosylation | –
6 | B6 | higher | – | –
